According to patent US20220041752A1 (Bayer, published 2022):
One block for each molecule: values may come before it.

How the values were obtained:
[1] = biological target: human tissue factor pathway inhibitor (TFPI) (human) (UniProt P10646); assay: SPR (Biacore) blocking assay: human TFPI immobilised on a CM5 chip, control Fab at 1 ug/ml injected before 5 ug/mL FVIIa/TF complex; this bar is the reference set to 100% by definition, so FVIIa/TF binding is not reduced
[2] = biological target: human tissue factor pathway inhibitor (TFPI) (human) (UniProt P10646); assay: SPR (Biacore) blocking assay: human TFPI immobilised on a CM5 chip, control Fab at 1 ug/ml injected before 5 ug/mL FXa; this bar is the reference set to 100% by definition, so FXa binding is not reduced
[3] = biological target: T1, human tissue factor pathway inhibitor (TFPI) (human, UniProt P10646 29-304); assay: assay and TFPI form not stated; reference is the wild type with hc_Lys99
T1 construct: also called human TFPI
T1 sequence: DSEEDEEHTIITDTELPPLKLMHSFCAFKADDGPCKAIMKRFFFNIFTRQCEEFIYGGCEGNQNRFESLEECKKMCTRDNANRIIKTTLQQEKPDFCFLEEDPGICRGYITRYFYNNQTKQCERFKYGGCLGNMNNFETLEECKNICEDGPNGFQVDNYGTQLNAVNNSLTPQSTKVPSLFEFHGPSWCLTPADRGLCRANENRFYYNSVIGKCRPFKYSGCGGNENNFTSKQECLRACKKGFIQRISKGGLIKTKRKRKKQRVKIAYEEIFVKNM

[4] = biological target: T1, human tissue factor pathway inhibitor …; assay: assay and TFPI form not stated; reference is the wild type with hc_Asp62

FVIIa/TF binding (% of the signal after control Fab) [1]: 100%
FXa binding (% of the signal after control Fab) [2]: 100%
Molecule: Ctrl Fab

fold affinity increase against wild type (hc_Lys99) [3]: 20 fold
B1: Fab B (Fab, V domains shown)
VH: QVELVESGGGLVQPGGSLRLSCAASGFTFRSYGMSWVRQAPGKGLEWVSSIRGSSSSTYYADSVKGRFTISRDNSKNTLYLQMNSLRAEDTAVYYCARLYRYWFDYWGQGTLVTVSS
VL: DIELTQPPSVSVAPGQTARISCSGDNLRNYYAHWYQQKPGQAPVVVIYYDNNRPSGIPERFSGSNSGNTATLTISGTQAEDEADYYCQSWDDGVPVFGGGTKLTVLG
notes: also called monoclonal TFPI antibody Fab B

fold affinity increase against wild type (hc_Asp62) [4]: 120 fold
B2: Fab A (Fab, V domains shown)
VH: QVQLQQSGPGLVKPSQTLSLTCAISGDSVSSNSAAWSWIRQSPGRGLEWLGIIYKRSKWYNRYAVSVKSRITINPDTSKNQFSLQLNSVTPEDTAVYYCARWHSDKHWGFDYWGQGTLVTVSS
VL: DIVMTQSPLSLPVTPGEPASISCRSSQSLVFSDGNTYLNWYLQKPGQSPQLLIYKGSNRASGVPDRFSGSGSGTDFTLKISRVEAEDVGVYYCQQYDSYPLTFGQGTKVEIKR
notes: Expressed in E. coli; also called monoclonal antibody Fab A
